{"source": "paper doi:10.1101/2025.06.13.659517", "about": "“Analysis of apo and citraconate-bound hACOD1 (hIRG1) by X-ray crystallography and NMR spectroscopy: Structural insights for developing chemotherapeutic agents” (bioRxiv, 2025)", "proteins": {"B1": {"name": "Human aconitate decarboxylase 1 (hACOD1), residues 4-461 (enzyme, UniProt A6NK06 4-461, looked up)", "chain": "KSITESFATAIHGLKVGHLTDRVIQRSKRMILDTLGAGFLGTTTEVFHIASQYSKIYSSNISSTVWGQPDIRLPPTYAAFVNGVAIHSMDFDDTWHPATHPSGAVLPVLTALAEALPRSPKFSGLDLLLAFNVGIEVQGRLLHFAKEANDMPKRFHPPSVVGTLGSAAAASKFLGLSSTKCREALAIAVSHAGAPMANAATQTKPLHIGNAAKHGIEAAFLAMLGLQGNKQVLDLEAGFGAFYANYSPKVLPSIASYSWLLDQQDVAFKRFPAHLSTHWVADAAASVRKHLVAERALLPTDYIKRIVLRIPNVQYVNRPFPVSEHEARHSFQYVACAMLLDGGITVPSFHECQINRPQVRELLSKVELEYPPDNLPSFNILYCEISVTLKDGATFTDRSDTFYGHWRKPLSQEDLEEKFRANASKMLSWDTVESLIKIVKNLEDLEDCSVLTTLLKGP", "notes": "The tag actually on the construct is therefore uncertain; also called hIRG1; hACOD1 (4-461); source: E. coli BL21-CodonPlus (RIPL), purified (StrepTactin column, TEV protease, SEC)"}}, "key": {"purified protein": {"substrate": "O=C(O)/C=C(/CC(=O)O)C(=O)O", "assay": "purified protein", "assay_type": "biochemical, Homo sapiens", "settings": "active site"}, "[1]": {"target": "the molecule itself", "assay": "crystal structure; crystals of apo and citraconate-bound hACOD1 (4-461) grown in conditions containing calcium acetate; solved by molecular replacement with PDB 6R6U; two protomers (chains A and B) form the dimer"}}}
{"protein": "B1", "values": [{"measurement": "Km", "setting": "purified protein", "result": "9.3 ± 2.1", "unit": "mM"}, {"measurement": "stoichiometry N", "setting": "[1]", "result": 2}]}
